Data as given in the nanobody polyreactivity screen of Harvey et al. (2022).

Assay: yeast display, Sf9 membrane polyspecificity reagent, FACS + sequencing; frameworks hold sequencing errors
Summary of the method: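 After 36–48 hours of galactose induction, yeast (Saccharomyces cerevisiae BJ5465) displaying a synthetic nanobody library were stained at 4 °C for 1 hour with 10% biotinylated, detergent-solubilized Sf9 membrane reagent. Streptavidin microbeads enriched the stained cells before FACS sorting into low and high (top ~1%) gates on anti-HA and streptavidin fluorescence. Each clone's polyreactivity label reflects its gate of origin.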

Row | Sequence | polyreactivity (PSR sort gate)
1 | QVQLVESGGGLVQAGGSLRLSCAASGRILGKYAMGWYRQAPGKERELVAAIRLRGGSPYYADSVKGRFTISRDNAKNTVYLQMNSLKPDDTAVYYCAARYWDRSQAYNYWGQGTQVTVSS | high polyreactivity
2 | QVQLVESGGGLVQAGGSLRLSCAASGRILGRYAMGWYRQAPGKERELVATITSGDDTNYADSVKGRFTISRDNAKNTVYLQMNSLKPEDTAVGYWGQGTQVTVSS | low polyreactivity
3 | QVQLVESGGGLVQAGGSLRLSCAASGRILGSYAMGWYRQAPGKERELVAAISRGGGRTYYADSVKGRFTISRDNAKNTVYLQMNSLNPEDTAVYYCNAPVTGSSSYFSQHFDYWGQGTQVTVSS | high polyreactivity
4 | QVQLVESGGGLVQAGGSLRLSCAASGRILGWNAMGWYSPAPGKVRELVAGISSSGGSTYYADSVKGRFTISRHNAKNTVNIQMNSLKPEDTAVYYCAAVVWLSSANRRYYYWGQGTQVTVSS | high polyreactivity
5 | QVQLVESGGGLVQAGGSLRLSCAASGRILHRYVMGWNRQAPGKERELVAAISSGGSTTYADSVKGRFTISRDNAKNTVYLQMNSLKPEATAVYYCAKYSFWRTSRMDFWGQGTQVTVSS | low polyreactivity
6 | QVQLVESGGGLVQAGGSLRLSCAASGRILKRNAMGWYRQSPGKERELVAAISWSTGTTYYADSVKGRFTISRDNAKNTVYLQMNSLKPEDTAVYYCAKQIVSGRRVDRNDYWGQGTQVTVSS | low polyreactivity
7 | QVQLVESGGGLVQAGGSLRLSCAASGRILLYNAMGWYRQAPGKERELVAAISRSGGSTYYADSVKGRFTISRDNAKNTVYLQMNSLKPEDTAVDYCAAQHGYTRYYYWGQGTQVTVSS | high polyreactivity
8 | QVQLVESGGGLVQAGGSLRLSCAASGRILNINAMGWYRQAPGKERELVAAITWRGGRTFYADSVKGRFTISRDNAKNTVYLQMNSLKPEDTAVYYCAASSNTWYPTGYYWGQGTQVTVSS | high polyreactivity
9 | QVQLVESGGGLVQAGGSLRLSCAASGRILPFNAMGWYRPAPGKERELVAAIRWRGSSTYYADSVKGRFTISRDNAKNTVYLQMNSLKPEDTAVYYCAAPSSVRGKVISADYGYWGQGTQVTVSS | high polyreactivity
10 | QVQLVESGGGLVQAGGSLRLSCAASGRILPGYAMGWYRQAPGKERELVAAIRGNGDSTYYADSVKGRFTISRDNAKNTVYLQMNSLKPEDTAVYYCAARRVSTIQRDSYRGRKYGYWGQGTQVTVSS | low polyreactivity
11 | QVQLVESGGGLVQAGGSLRLSCAASGRILPLYAMGWYRQAPGKERELVARIDSGGSTNYADSVKGRFTISRDNAKNTVYLQMNSLKPEDTAVYYCAAVVTAQAFAYFTYGYDYWGQGTQVTVSS | low polyreactivity
12 | QVQLVESGGGLVQAGGSLRLSCAASGRILPSNAMGWYRQAPGKERELVAAIRSGDRTYYADSVKGRFTISRDNAKNTVYLQMNSLKPEDTAVYYCAAFYHHYYRYDYWGQGTQVTVSS | low polyreactivity
13 | QVQLVESGGGLVQAGGSLRLSCAASGRILPSNAMGWYRQAPGKERELVAGITSGGSTDYADSVKGRFTISRDNAKNTVYLQMNSLKPEDTAVYYCAAHPAYRDSWGEYDYWGQGTQVTVSS | low polyreactivity
14 | QVQLVESGGGLVQAGGSLRLSCAASGRILPSNAMGWYRQATGNERELVATISSSGGDTYYADSVKGRFTNSRDNAKNTVYLQMNSLKPEDTAVYYCAADSTWEGGYKYEYWGQGTQVTVSS | low polyreactivity
15 | QVQLVESGGGLVQAGGSLRLSCAASGRILPWYAMGWYRQAPGKERELAARIRSTDSTNYADSVKGRFTISRDNAKNTVYLQMNSLKPEDTAVYYCAKVQWGFPYAWLGSDYWGQGTQVTVSS | low polyreactivity
16 | QVQLVESGGGLVQAGGSLRLSCAASGRILPWYAMGWYRQAPGKERELVAGISSNGGSTYYADSVKGRFTISRDNAKNTVYLQMNSLKPEDSAVYYCAALFWYWRHYPSDYWGQGTQVTVSS | high polyreactivity
17 | QVQLVESGGGLVQAGGSLRLSCAASGRILPYYAMGWYRPAPGKERELVAALTGGGGSTYYADSVKGRFTISRDNAKNTVYLQMNSLKPEDTAVYYCAKPRGRASLALYRFSLYYYWGQGTQVTVSS | high polyreactivity
18 | QVQLVESGGGLVQAGGSLRLSCAASGRILRQYAMGWYRQAPGKERELVAAITSSGGSTYYADSVKGRFTNSRDNAKNTVYLQMNSLKPEDTAVYYCAARYYPSGYRKKMYYWGQGTQVTVSS | high polyreactivity
19 | QVQLVESGGGLVQAGGSLRLSCAASGRILRWNAMGWYRQAPGKEREMVAAIDWRGGSTYYADSVKGRFTISRDNAKNTVYLQMNSLKPEDTAVYYCAVDYYPYEVSYVRMDYWGQGTQVTVSS | low polyreactivity
20 | QVQLVESGGGLVQAGGSLRLSCAASGRILSANAMGWYRQAPGKERELVAAITYSGDNTYYADSVKGRFTISRDNAKNTVYLQMNSLKPEDTAVYYCAREFQVDGGEEDYWGQGTQVTVSS | low polyreactivity
21 | QVQLVESGGGLVQAGGSLRLSCAASGRILSFYAMGWYRQAPGKEREFVATITWSGGSTYADSVKGRFTISRDNANNSVYLQMNSLKPEDTAVYYCNAELSNYKYDYWGQGTHVTVSS | low polyreactivity
22 | QVQLVESGGGLVQAGGSLRLSCAASGRILSGTPMGLYRQAPRKERELVAAITNAGITKYADSVKGRFTISRDNAKNTVYLQMNSLKPEDTAVYYCATDRYAYKLYDYWGQGTKVTVSS | low polyreactivity

Row | Sequence | polyreactivity (PSR sort gate)
23 | QVQLVESGGGLVQAGGSLRLSCAASGRILSHYAMGWYRQAPGKERELVASISGSDGSTYYADSVKGRFTISRDNAKNTVYLQMNSLKPEDTAVYYCAVDSYQTGVYFYYVYWDFDLGYWGQGTQVTVSS | low polyreactivity
24 | QVQLVESGGGLVQAGGSLRLSCAASGRILSPYAMGWYRPAPGKERELVAAISRSGGSTYYADSVKGRFTISRDNAKNTVYLQMNSLKPEDTAVYYCNAVIAWYRSDEYDYWGQGTQVTVSS | high polyreactivity
25 | QVQLVESGGGLVQAGGSLRLSCAASGRILSSYAMGWYRQAPGKERELVARISYSGGRTYYADSVKGRFTISRDNAKNTVYLQMNSLKPEDTAVYYCAAVSRVHFSYIYDYWGQGTQVTVSS | high polyreactivity
26 | QVQLVESGGGLVQAGGSLRLSCAASGRILSVYVMGWYRQAPGKERELVAAISRNGGRTYYADSVKGRFTISRDNAKNTVYLQMNSLKPEDTAVYYCAKSQRGTVYSYYYWGQGTQVTVSS | high polyreactivity
27 | QVQLVESGGGLVQAGGSLRLSCAASGRILSYNAMGCYRQAPGKERELVAGISWSGGSTYYADSVKGRFTISRDNAKNTVYLQMNSLKPEDTAVYYCNKLQGLTWYNSPYGYWGQGTQVTVSS | high polyreactivity
28 | QVQLVESGGGLVQAGGSLRLSCAASGRILSYYAMGWYRQAPGKERELVAAISWGGGRTFYADSVKGRFTISRDNAKNTVYLQMNSLQPEDTAVYYCNADSYRWGAHDYWGQGTQVTVSS | high polyreactivity
29 | QVQLVESGGGLVQAGGSLRLSCAASGRILTSNAMGWYRKAPGKERELVAAISWSGGSTYYADSVKGRFTISRENAKNSVYLHMNRLKPEDTAGYYCAAPFTTTFDYWGQGTQVTVSS | low polyreactivity
30 | QVQLVESGGGLVQAGGSLRLSCAASGRILTSNAMGWYRQAPGKERELVAAISWSGGSTYYADSVKGRFTISRDNAKNTVYLQMNILKPEDTAVYYCAAPLYWVDDFESGWRYYYWGQGTQVTVSS | low polyreactivity
31 | QVQLVESGGGLVQAGGSLRLSCAASGRILTYYAMGWYRQAPGKERELVAAISWRAGYTYYADSVKGRFTISRDNAKNTVYLQMNSLKPEDTAVYYCAAETSNRGRRYYYWGQGTQVTVSS | high polyreactivity
32 | QVQLVESGGGLVQAGGSLRLSCAASGRILVLNAMGWYIQAPGKERELVADITSGGSTYYADSVKGRFTISRDNEKNTVYLQMISLKPEHTAVYYCAADWNTYPDYLQSYFVSYEYNYWGQGTLVTVSS | low polyreactivity
33 | QVQLVESGGGLVQAGGSLRLSCAASGRILVRNAMGRYRQAPGKERELVAVIRWSGGRTSYADSVKGRFTISRDNAKNTVYLQMNSLKPEDTAVYYCNKGGSYPTSNYKSYWVGVDYWGQGTQVTVSS | low polyreactivity
34 | QVQLVESGGGLVQAGGSLRLSCAASGRILVVNAMGWYRQAPGKERELVASISQSGGITYADSVKGRFTISRDNAKNTVYLQMNSLKTEDTAVYYCAAKSTWEYDYWGQGTQVTVSS | low polyreactivity
35 | QVQLVESGGGLVQAGGSLRLSCAASGRILWGNTMGWYRQAPGKERELVAAISWNGGGTYYADSVKGRFTISRDNAKNTVYLQMNSLKPEDTAVYYCATRYTYSTDTGYDYWGQGTQVTVSS | low polyreactivity
36 | QVQLVESGGGLVQAGGSLRLSCAASGRILWSYAMGWYRQAPGKEREFVAAISRGGGTTYYADSVKGRFTISRDNAKNTVYLQMNSLKPEDTAVYYCNAGDHIRKRYGISATWGYGYGYWGQGTQVTVSS | high polyreactivity
37 | QVQLVESGGGLVQAGGSLRLSCAASGRILWYNAMGWYRQAPGKERELVAAINRGGSTNYADSVKGRFRISRDNAKNTVYLQMNSLKPEDTAVYYCAAVHYRWWYRSAYDYWGQGTQVTVSS | low polyreactivity
38 | QVQLVESGGGLVQAGGSLRLSCAASGRILYFYIGWYRQAPGTEREFVADISSTTSTYYADSVKGRFTISRDNAKNTVYLQMKSLKPEDTAVYYCAAPGDGYAYPIVWYGYSGYYYWGQGTQVTVSS | low polyreactivity
39 | QVQLVESGGGLVQAGGSLRLSCAASGRILYGYTMGWYRQAPGKEREFVARITRRGGRTNYADSVKGRFTISRDNAKNTVYLQMNSLKPEDTAVYYCAADPIRDSWWQYFQDGREYDYWGQGTQVTVSS | low polyreactivity
40 | QVQLVESGGGLVQAGGSLRLSCAASGRILYKYAMGWYRQAPGKERELVAAISWRGTTTYYADSVKGRFTISRDNAKNTVYLQMNSLKPEDTAVYYCAKDRSYGYFSRPVSQYDYWGQGTQVTVSS | high polyreactivity
41 | QVQLVESGGGLVQAGGSLRLSCAASGRILYLNAMGWYRQAPGKERELVAAITRRAGSTRYADSVKGRFTISRDKAKNTVYLQMNSLKPEDTAVYYCAVAYYRNRMDYWGQGTQVTVSS | high polyreactivity
42 | QVQLVESGGGLVQAGGSLRLSCAASGRILYPYAMGWYIQAPGKERELVAAITFIGGSTYYADSVKGRFTISRDNAKNTVYLQMNSLKPEDTAVYYCNAKPHRPSLLRWRIGNYWGQGTQVTVSS | high polyreactivity
43 | QVQLVESGGGLVQAGGSLRLSCAASGRILYPYAMGWYRQAPGKERELVAAITFRGGNTYYADSVKGRFTISRDNAKNTVYLQMNSLKPEDTAVYYCAKRGGYWHKFDYWGQGTQVTVSS | high polyreactivity
